# Source: patent US20200270325A1 (Merck Sharp & Dohme, published 2020)
# Numbered stars: 1 amine (or outer) side, 2 acyl side, 3 side chain; on linkers, the order of the positions; unused ones are H or OH. Square brackets hold non-standard residues; d marks the D form. Side chains are listed from the residue outwards. Ends that are not written are not given here. * marks the point of attachment. C18 diacid = O=C(O)CCCCCCCCCCCCCCCCC(=O)*; C16 diacid = O=C(O)CCCCCCCCCCCCCCC(=O)*; γGlu = O=C(O)[C@H](CCC(=O)[*:2])N[*:1]; Met(O2) = CS(=O)(=O)CC[C@H](N)C(=O)O; αMeD = C[C@](N)(CC(=O)O)C(=O)O; AEEA = NCCOCCOCC(=O)O; Aib = CC(C)(N)C(=O)O
# B1: TP575 (peptide)
# peptide: H[Aib]QGTFTSDYSKYLD[Aib]RAAQDFVK([AEEA-AEEA-γGlu-C18 diacid])WL[Met(O2)]DT-NH2
# modifications: N-terminus assumed
# SMILES: CC(C)C[C@H](NC(=O)[C@H](Cc1c[nH]c2ccccc12)NC(=O)[C@H](CCCCNC(=O)COCCOCCNC(=O)COCCOCCNC(=O)CC[C@H](NC(=O)CCCCCCCCCCCCCCCCC(=O)O)C(=O)O)NC(=O)[C@@H](NC(=O)[C@H](Cc1ccccc1)NC(=O)[C@H](CC(=O)O)NC(=O)[C@H](CCC(N)=O)NC(=O)[C@H](C)NC(=O)[C@H](C)NC(=O)[C@H](CCCNC(=N)N)NC(=O)C(C)(C)NC(=O)[C@H](CC(=O)O)NC(=O)[C@H](CC(C)C)NC(=O)[C@H](Cc1ccc(O)cc1)NC(=O)[C@H](CCCCN)NC(=O)[C@H](CO)NC(=O)[C@H](Cc1ccc(O)cc1)NC(=O)[C@H](CC(=O)O)NC(=O)[C@H](CO)NC(=O)[C@@H](NC(=O)[C@H](Cc1ccccc1)NC(=O)[C@@H](NC(=O)CNC(=O)[C@H](CCC(N)=O)NC(=O)C(C)(C)NC(=O)[C@@H](N)Cc1c[nH]cn1)[C@@H](C)O)[C@@H](C)O)C(C)C)C(=O)N[C@@H](CCS(C)(=O)=O)C(=O)N[C@@H](CC(=O)O)C(=O)N[C@H](C(N)=O)[C@@H](C)O
# B2: TP598 (peptide)
# peptide: H[Aib]QGTFTSDYSKYLDAKAAK([AEEA-AEEA-γGlu-C18 diacid])DFVQWL[Met(O2)]DT-NH2
# modifications: N-terminus assumed
# SMILES: CC(C)C[C@H](NC(=O)[C@H](Cc1ccc(O)cc1)NC(=O)[C@H](CCCCN)NC(=O)[C@H](CO)NC(=O)[C@H](Cc1ccc(O)cc1)NC(=O)[C@H](CC(=O)O)NC(=O)[C@H](CO)NC(=O)[C@@H](NC(=O)[C@H](Cc1ccccc1)NC(=O)[C@@H](NC(=O)CNC(=O)[C@H](CCC(N)=O)NC(=O)C(C)(C)NC(=O)[C@@H](N)Cc1c[nH]cn1)[C@@H](C)O)[C@@H](C)O)C(=O)N[C@@H](CC(=O)O)C(=O)N[C@@H](C)C(=O)N[C@@H](CCCCN)C(=O)N[C@@H](C)C(=O)N[C@@H](C)C(=O)N[C@@H](CCCCNC(=O)COCCOCCNC(=O)COCCOCCNC(=O)CC[C@H](NC(=O)CCCCCCCCCCCCCCCCC(=O)O)C(=O)O)C(=O)N[C@@H](CC(=O)O)C(=O)N[C@@H](Cc1ccccc1)C(=O)N[C@H](C(=O)N[C@@H](CCC(N)=O)C(=O)N[C@@H](Cc1c[nH]c2ccccc12)C(=O)N[C@@H](CC(C)C)C(=O)N[C@@H](CCS(C)(=O)=O)C(=O)N[C@@H](CC(=O)O)C(=O)N[C@H](C(N)=O)[C@@H](C)O)C(C)C
# B3: TP827 (peptide)
# peptide: H[Aib]QGTFTSDYSKYLDARAAQK([AEEA-AEEA-γGlu-C16 diacid])FVQWL[Met(O2)][γGlu]T-NH2
# modifications: N-terminus assumed
# SMILES: CC(C)C[C@H](NC(=O)[C@H](Cc1ccc(O)cc1)NC(=O)[C@H](CCCCN)NC(=O)[C@H](CO)NC(=O)[C@H](Cc1ccc(O)cc1)NC(=O)[C@H](CC(=O)O)NC(=O)[C@H](CO)NC(=O)[C@@H](NC(=O)[C@H](Cc1ccccc1)NC(=O)[C@@H](NC(=O)CNC(=O)[C@H](CCC(N)=O)NC(=O)C(C)(C)NC(=O)[C@@H](N)Cc1c[nH]cn1)[C@@H](C)O)[C@@H](C)O)C(=O)N[C@@H](CC(=O)O)C(=O)N[C@@H](C)C(=O)N[C@@H](CCCNC(=N)N)C(=O)N[C@@H](C)C(=O)N[C@@H](C)C(=O)N[C@@H](CCC(N)=O)C(=O)N[C@@H](CCCCNC(=O)COCCOCCNC(=O)COCCOCCNC(=O)CC[C@H](NC(=O)CCCCCCCCCCCCCCC(=O)O)C(=O)O)C(=O)N[C@@H](Cc1ccccc1)C(=O)N[C@H](C(=O)N[C@@H](CCC(N)=O)C(=O)N[C@@H](Cc1c[nH]c2ccccc12)C(=O)N[C@@H](CC(C)C)C(=O)N[C@@H](CCS(C)(=O)=O)C(=O)N[C@@H](CCC(=O)N[C@H](C(N)=O)[C@@H](C)O)C(=O)O)C(C)C
# B4: TP826 (peptide)
# peptide: H[Aib]QGTFTSDYSKYLDARAAK([AEEA-AEEA-γGlu-C16 diacid])DFVQWL[Met(O2)][γGlu]T-NH2
# modifications: N-terminus assumed
# SMILES: CC(C)C[C@H](NC(=O)[C@H](Cc1ccc(O)cc1)NC(=O)[C@H](CCCCN)NC(=O)[C@H](CO)NC(=O)[C@H](Cc1ccc(O)cc1)NC(=O)[C@H](CC(=O)O)NC(=O)[C@H](CO)NC(=O)[C@@H](NC(=O)[C@H](Cc1ccccc1)NC(=O)[C@@H](NC(=O)CNC(=O)[C@H](CCC(N)=O)NC(=O)C(C)(C)NC(=O)[C@@H](N)Cc1c[nH]cn1)[C@@H](C)O)[C@@H](C)O)C(=O)N[C@@H](CC(=O)O)C(=O)N[C@@H](C)C(=O)N[C@@H](CCCNC(=N)N)C(=O)N[C@@H](C)C(=O)N[C@@H](C)C(=O)N[C@@H](CCCCNC(=O)COCCOCCNC(=O)COCCOCCNC(=O)CC[C@H](NC(=O)CCCCCCCCCCCCCCC(=O)O)C(=O)O)C(=O)N[C@@H](CC(=O)O)C(=O)N[C@@H](Cc1ccccc1)C(=O)N[C@H](C(=O)N[C@@H](CCC(N)=O)C(=O)N[C@@H](Cc1c[nH]c2ccccc12)C(=O)N[C@@H](CC(C)C)C(=O)N[C@@H](CCS(C)(=O)=O)C(=O)N[C@@H](CCC(=O)N[C@H](C(N)=O)[C@@H](C)O)C(=O)O)C(C)C
# B5: TP825 (peptide)
# peptide: H[Aib]QGTFTSDYSKYLDARAAQK([AEEA-AEEA-γGlu-C16 diacid])FVQWL[Met(O2)]ET-NH2
# modifications: N-terminus assumed
# SMILES: CC(C)C[C@H](NC(=O)[C@H](Cc1ccc(O)cc1)NC(=O)[C@H](CCCCN)NC(=O)[C@H](CO)NC(=O)[C@H](Cc1ccc(O)cc1)NC(=O)[C@H](CC(=O)O)NC(=O)[C@H](CO)NC(=O)[C@@H](NC(=O)[C@H](Cc1ccccc1)NC(=O)[C@@H](NC(=O)CNC(=O)[C@H](CCC(N)=O)NC(=O)C(C)(C)NC(=O)[C@@H](N)Cc1c[nH]cn1)[C@@H](C)O)[C@@H](C)O)C(=O)N[C@@H](CC(=O)O)C(=O)N[C@@H](C)C(=O)N[C@@H](CCCNC(=N)N)C(=O)N[C@@H](C)C(=O)N[C@@H](C)C(=O)N[C@@H](CCC(N)=O)C(=O)N[C@@H](CCCCNC(=O)COCCOCCNC(=O)COCCOCCNC(=O)CC[C@H](NC(=O)CCCCCCCCCCCCCCC(=O)O)C(=O)O)C(=O)N[C@@H](Cc1ccccc1)C(=O)N[C@H](C(=O)N[C@@H](CCC(N)=O)C(=O)N[C@@H](Cc1c[nH]c2ccccc12)C(=O)N[C@@H](CC(C)C)C(=O)N[C@@H](CCS(C)(=O)=O)C(=O)N[C@@H](CCC(=O)O)C(=O)N[C@H](C(N)=O)[C@@H](C)O)C(C)C
# B6: TP828 (peptide)
# peptide: H[Aib]QGTFTSDYSKYLD[Aib]RAAQDFVK([AEEA-AEEA-γGlu-C16 diacid])WL[Met(O2)][γGlu]T-NH2
# modifications: N-terminus assumed
# SMILES: CC(C)C[C@H](NC(=O)[C@H](Cc1c[nH]c2ccccc12)NC(=O)[C@H](CCCCNC(=O)COCCOCCNC(=O)COCCOCCNC(=O)CC[C@H](NC(=O)CCCCCCCCCCCCCCC(=O)O)C(=O)O)NC(=O)[C@@H](NC(=O)[C@H](Cc1ccccc1)NC(=O)[C@H](CC(=O)O)NC(=O)[C@H](CCC(N)=O)NC(=O)[C@H](C)NC(=O)[C@H](C)NC(=O)[C@H](CCCNC(=N)N)NC(=O)C(C)(C)NC(=O)[C@H](CC(=O)O)NC(=O)[C@H](CC(C)C)NC(=O)[C@H](Cc1ccc(O)cc1)NC(=O)[C@H](CCCCN)NC(=O)[C@H](CO)NC(=O)[C@H](Cc1ccc(O)cc1)NC(=O)[C@H](CC(=O)O)NC(=O)[C@H](CO)NC(=O)[C@@H](NC(=O)[C@H](Cc1ccccc1)NC(=O)[C@@H](NC(=O)CNC(=O)[C@H](CCC(N)=O)NC(=O)C(C)(C)NC(=O)[C@@H](N)Cc1c[nH]cn1)[C@@H](C)O)[C@@H](C)O)C(C)C)C(=O)N[C@@H](CCS(C)(=O)=O)C(=O)N[C@@H](CCC(=O)N[C@H](C(N)=O)[C@@H](C)O)C(=O)O
# B7: TP597 (peptide)
# peptide: H[Aib]QGTFTSDYSKLLDARAAK([AEEA-AEEA-γGlu-C18 diacid])DFVQWL[Met(O2)]DT-NH2
# modifications: N-terminus assumed
# SMILES: CC(C)C[C@H](NC(=O)[C@H](CC(C)C)NC(=O)[C@H](CCCCN)NC(=O)[C@H](CO)NC(=O)[C@H](Cc1ccc(O)cc1)NC(=O)[C@H](CC(=O)O)NC(=O)[C@H](CO)NC(=O)[C@@H](NC(=O)[C@H](Cc1ccccc1)NC(=O)[C@@H](NC(=O)CNC(=O)[C@H](CCC(N)=O)NC(=O)C(C)(C)NC(=O)[C@@H](N)Cc1c[nH]cn1)[C@@H](C)O)[C@@H](C)O)C(=O)N[C@@H](CC(=O)O)C(=O)N[C@@H](C)C(=O)N[C@@H](CCCNC(=N)N)C(=O)N[C@@H](C)C(=O)N[C@@H](C)C(=O)N[C@@H](CCCCNC(=O)COCCOCCNC(=O)COCCOCCNC(=O)CC[C@H](NC(=O)CCCCCCCCCCCCCCCCC(=O)O)C(=O)O)C(=O)N[C@@H](CC(=O)O)C(=O)N[C@@H](Cc1ccccc1)C(=O)N[C@H](C(=O)N[C@@H](CCC(N)=O)C(=O)N[C@@H](Cc1c[nH]c2ccccc12)C(=O)N[C@@H](CC(C)C)C(=O)N[C@@H](CCS(C)(=O)=O)C(=O)N[C@@H](CC(=O)O)C(=O)N[C@H](C(N)=O)[C@@H](C)O)C(C)C
# Target: human GLP-1 receptor (GLP1R) (human, UniProt P43220 24-463)
# Test: cell-based or functional assay
row,Binder,GLP1R EC50 human [nM]
1,B1,0.866
2,B2,0.5
3,B3,0.081
4,H[Aib]QGTFTSDYSKYLD[Aib]RAAK([AEEA-AEEA-γGlu-C20‑OH])DFVQWL[Met(O2)]DT-NH2 [TP564],1.22
5,B4,0.253
6,B5,0.036
7,B6,0.587
8,H[Aib]QGTFTSDYSKYLDERAAK([AEEA-AEEA-γGlu-C20‑OH])DFVQWL[Met(O2)][αMeD]T-NH2 [TP589],2.07
9,B7,0.61

# Target: human Glucagon receptor (GCGR) (human, UniProt P47871 26-477)
# Sequence (P47871 26-477): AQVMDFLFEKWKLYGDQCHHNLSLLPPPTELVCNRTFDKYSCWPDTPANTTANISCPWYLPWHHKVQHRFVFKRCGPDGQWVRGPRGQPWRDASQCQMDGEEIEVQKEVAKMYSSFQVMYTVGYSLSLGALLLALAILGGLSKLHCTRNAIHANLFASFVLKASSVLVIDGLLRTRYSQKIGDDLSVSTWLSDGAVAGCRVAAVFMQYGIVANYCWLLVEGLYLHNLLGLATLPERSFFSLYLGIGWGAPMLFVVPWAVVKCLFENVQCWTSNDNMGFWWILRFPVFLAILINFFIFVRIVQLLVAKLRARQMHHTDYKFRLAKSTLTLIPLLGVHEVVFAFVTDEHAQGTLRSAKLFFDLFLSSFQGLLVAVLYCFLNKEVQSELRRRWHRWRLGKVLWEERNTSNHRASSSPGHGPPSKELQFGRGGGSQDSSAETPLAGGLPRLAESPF
# Test: cell-based or functional assay
row,Binder,GCGR EC50 human [nM]
1,B1,0.595
2,B2,1.14
3,B3,0.133
4,H[Aib]QGTFTSDYSKYLD[Aib]RAAK([AEEA-AEEA-γGlu-C20‑OH])DFVQWL[Met(O2)]DT-NH2 [TP564],1.25
5,B4,0.67
6,B5,0.07
7,B6,0.228
8,H[Aib]QGTFTSDYSKYLDERAAK([AEEA-AEEA-γGlu-C20‑OH])DFVQWL[Met(O2)][αMeD]T-NH2 [TP589],19.8
9,B7,0.74
